Measurements reported in the Human Domainome abundance scans (Beltran et al. 2025).

B1: Tesmin, residues 368 to 403; numbered along this chain, Q9Y4I5 (parent)
chain: KGCNCRRSGCLKNYCECYEAQIMCSSICKCIGCKNY

Variants of: B1
Experiment: abundance fitness (aPCA) (normalised: wild type 0, dead -1); higher = more abundant; growth selection in yeast, the domain comes from the species named
Conditions: Homo sapiens

Abundance fitness: each site, then its substitutions
N4: T -0.186; K -0.314; V -1.13; I -0.31; P -0.033; E -0.056; G -0.103; S -0.103; A -0.162; C -0.183; L -0.207; H -0.199; M -0.011; R -0.16; Y -0.226; D 0.22
R7: M 0.214; A 0.248; I -0.336; W -0.255; L -0.021; E 0.398; Q 0.282; T 0.047; C -0.401; G 0.268; Y 0.035; K 0.039; P -0.103
Y18: S -0.059; G 0.034; W -0.047; F -0.089; I -0.318; V -0.27; D -0.088; N 0.083; R -0.153; C -0.106; E 0.058; H -0.016; Q 0.107; P -0.066; L -0.353; M 0.098; A -0.03; T -0.082
E16: G -0.086; A -0.256; N -0.763; S -0.57; Y -0.577; V -0.329; Q -0.034; W -0.466; T -0.39; P -0.327; D -0.522; L -0.441; C -0.677; H -0.418; F -0.453; M -0.218; R -0.341; K -0.502
G9: W -1.51; Q -0.342; S -0.795; M -0.269; P -0.213; A -0.339; D 0.111; E 0.006; N -0.248; V -0.334; L -0.629; T -0.22
Y14: T -0.222; W -0.01; V -0.082; P 0.145; D 0.171; K -0.02; N 0.267; Q 0.007; S 0.047; G 0.096; I -0.09; C 0.14; E 0.013; A -0.253; R 0.01; M 0.153
C5: G -0.65; D -0.794; S -0.342; P -0.296; V -1.24; W -0.523; T -0.431; L -0.455; H 0.066; I -0.936; E -0.176; M -0.286; Q -0.346; A -0.414; N -0.478
S8: E -0.08; G 0.034; C -0.581; H -0.461; K -0.107; W -0.527; N -0.384; A -0.144; D -0.066; Y -0.514; V -0.187; M -0.343; I 0.19; Q -0.063; F -0.399; R -0.169; L -0.106
G2: R -0.447; P 0.07; V -0.209; T -0.439; Q -0.17; L -0.465; E 0.017; C -0.448; W -0.674; S -0.194; A -0.133; K -0.565; M -0.189
K1: V -0.825; D -0.995; S -0.401; E -0.136; G -0.573; L -0.211; C -0.775
A20: K -0.337; W -0.295; S -0.049; Y -0.367; L -0.199; G 0.065; C -0.442; E -0.082; R -0.038; Q -0.095; T -0.196; M -0.317; P -0.292; V -0.202; I -0.696
K12: E 0.031; G -0.079; Y -0.831; F -0.01; V -0.014; P -0.077; S -0.181; C -0.622; Q -0.076; M -0.323; A -0.05; R -0.359; L -0.316; W -0.643; T -0.201; I -0.405; N -0.46; H -0.217
M23: A -0.18
Q21: N -0.124; W -0.508; H -0.271; A -0.127; V -0.472; E 0.155; G -0.004; T -0.08; C -0.235; P -0.073; R 0.061; K -0.065; L -0.26; M -0.48; D -0.566
R6: V 0.12; G 0.151; E 0.214; W 0.012; F -0.169; Q 0.338; C 0.036; T 0.239; A 0.33; K 0.146; N -0.361; S 0.303; L 0.204; D 0.156
E19: M -0.18; N -0.351; F -0.31; S -0.226; P -0.284; A -0.107; C -0.132; T -0.308; D -0.243; R -0.188; K -0.1; G -0.043; Q -0.131; V -0.201; L -0.281
L11: I -0.369; G -0.064; Y -0.656; T -0.079; E 0.05; A 0.075; M 0.038; N -0.243; D -0.428; K -0.025; Q 0.087; S -0.134; C -0.567; R -0.344; P -0.116; H 0.297; W -0.388
I22: Q 0.329; S -0.066; K -0.093; L -0.073; V 0.048; W -0.365; F -0.088; E 0.004; G 0.268; P -0.043; M -0.423; N 0.551; C -0.55; T 0.109; A 0.004; R 0.021
C3: P -0.577; A -0.33; G -0.236; K -0.115; L -0.677; W -0.624; D -0.262; Q -0.462; S -0.702; M -0.194; H -0.363; T -0.322; Y -0.056; I -0.51; F -0.567
C15: M -0.689; R -0.378; L -0.713; K -0.295; S -0.596; G -0.305; W -0.993; F -0.742; H -0.425; T -0.382; Y -0.658; P -0.259; A -0.394; I -0.809; E -0.076; V -0.65; D -0.04; Q -0.282
N13: T -0.297; G -0.045; P -0.258; M -0.556; I -0.398; S -0.181; R -0.218; H -0.871; K -0.075; L -0.266; V -0.619; W -0.755; Q -0.061; E -0.061; D -0.092; Y -0.51; F -0.613; C -0.558
C17: K -0.337; P -0.312; M -0.575; L -0.288; Y -0.72; T -0.689; R -0.444; V -0.415; E -0.465; Q -0.205; A -0.36
C10: S -0.213; K -0.323; L -0.414; W -0.418; D -0.105; Q -0.208; N -0.405; I -1.37; V -0.322; R -0.539; A -0.141; E 0.004; P -0.633; T -0.245; Y -0.439; M -0.501
